Assay [1] has as its target human GPVI-Fc (isoform and haplotype not stated) used in the competition ELISA (human) (UniProt Q9HCN6). The experiment in a line: Competition ELISA (MSD): human GPVI-Fc preincubated with Fab, then on coated rat-tail collagen (competitor).
For assay [2], the target named is human GPVI on the cell surface of human platelets (human) (UniProt Q9HCN6). The experiment in a line: FACS on washed human platelets from PRP, Fab directly conjugated with PE, average + SD of 3 donors, signal given as GPVI molecules per cell.
For assay [3] the target is unchanged. The experiment in a line: FACS on washed human platelets from PRP (one exemplary donor), PE-conjugated detection antibody, median fluorescence.
Assay [4] deals with human GPVI-Fc (isoform and haplotype not stated) used in the competition ELISA (human) (UniProt Q9HCN6). The experiment in a line: Competition ELISA (MSD): human GPVI-Fc preincubated with Fab, then on coated VitroCol (competitor).
Assay [5] shares this target. The experiment in a line: Competition ELISA (MSD): human GPVI-Fc preincubated with Fab, then on coated CRP-XL (competitor). A general note: ELISA stands for enzyme-linked immunosorbent assay.

B1: Fab #4 comprising a modified heavy chain constant region (Fab, V domains shown)
VH: QVQLVQSGAEVKKPGASVKVSCKASGGAFTSSYMHWVRQAPGQGLEWMGIIEPTGASTLYAQRFQGRVTMTRDTSTSTVYMELSSLRSEDTAVYYCARTGIALPLGFDLWGQGTLVTVSS
VL: QSVLTQPPSVSAAPGQKVTISCSGSSSNIGNNYVSWYQQLPGTAPKLLIYDNNKRPSGIPDRFSGSKSGTSATLGITGLQTEDEADYYCAAWSTRFRWVFGGGTKLTVLG
Take B1: the 50% inhibitory concentration (IC50) (in general, the concentration that gives 50% inhibition) amounted to 8.2 nM in assay [1], 10.6 nM in assay [4] and 13.2 nM in assay [5]. The Maximum inhibition at 200 nM Fab [%] is 86% in assay [1], 82% in assay [4] and 47% in assay [5]. Moreover, the EC50 (read off the curve) (commonly the concentration at which the effect is half-maximal) in assay [2] came to 0.6 µg/mL; in assay [3], 0.5 µg/mL.

B2: Reference Control Antibody RefFab #1 (humanized GPVI antibody of WO2011073954A2, SANOFI) (Fab, V domains shown)
VH: EVQLLESGPGLVAPSGSLSITCTVSGFSLTGYGVNWVRQPPGKGLEWLGMIWGDGSTDYQSTLKSRLSISKDNSKSQVFLKMNSLRTDDTARYYCARDLPMDYWGLGTSVTVSS
VL: DIQMTQSPSSLSASVGGRVTITCKASQDINKYIAWYQHKPGKGPSLLIHYTSTLQPGVPSRFSGSGSGRDYSFSISNLQPEDIATYYCLQYANLLTFGGGTKLEIKR
As for B2, the IC50 in assay [1] turned out to be 7 nM; in assay [4] it was 5.8 nM; in assay [5] it was 10.6 nM. Moreover, the Maximum inhibition at 200 nM Fab [%] in assay [1] amounted to 99%; in assay [4] it was 100%; in assay [5] it was 100%. Besides, the EC50 (read off the curve) in assay [3] came to 1 µg/mL.

B3: Fab #1 comprising a modified heavy chain constant region (Fab, V domains shown)
VH: QVQLVQSGAEVKKPGASVKVSCKASGYTFTSHYMHWVRQAPGQGLEWMGLIEPSEGETEYAQRFQGRVTMTRDTSTSTVYMELSSLRSEDTAVYYCARDSSRSYPLGFDIWGQGTLVTVSS
VL: QSVLTQPPSVSAAPGQKVTISCSGSSSNIGNNYVSWYQQLPGTAPKLLIYDNNKRPSGIPDRFSGSKSGTSATLGITGLQTEDEADYYCAAWDFRSSRWVFGGGTKLTVLG
On to B3, for which the IC50 in assay [1] was 11 nM; in assay [4], 8.2 nM; in assay [5], 10.9 nM. For the same molecule, the Maximum inhibition at 200 nM Fab [%] amounted to 89% in assay [1], 79% in assay [4] and 63% in assay [5]. In assay [3], this molecule registered a concentration for a half-maximal effect (EC50 (read off the curve)) of 0.2 µg/mL.

B4: Fab #2 comprising a modified heavy chain constant region (Fab, V domains shown)
VH: QVQLVESGGGLVKPGGSLRLSCAASGFSFSDHYMSWIRQAPGKGLEWVSSVGSEGKFIDYAASVKGRFTISRDNAKNSLYLQMNSLRAEDTAVYYCARHYREFRWHYYYFDYWGQGTLVTVSS
VL: QSVLTQPPSVSGAPGQRVTISCTGSSSNIGAGYDVHWYQQLPGTAPKLLIYGNSNRPSGVPDRFSGSKSGTSASLAITGLQAEDEADYYCQSHDLGAHVWVFGGGTKLTVLG
On to B4, for which the IC50 turned out to be 6.3 nM in assay [1], 5.4 nM in assay [4] and 8.3 nM in assay [5]. The Maximum inhibition at 200 nM Fab [%] in assay [1], in assay [4] and in assay [5] was 100% throughout. In assay [3], this molecule gave an EC50 (read off the curve) of 0.4 µg/mL.

B5: Fab #3 comprising a modified heavy chain constant region (Fab, V domains shown)
VH: QVQLVESGGGLVKPGGSLRLSCAASGFSFGDYYVSWIRQAPGKGLEWVSAIGGSGSAVQYAESVKGRFTISRDNAKNSLYLQMNSLRAEDTAVYYCARHYREFRWHYYYFDYWGQGTLVTVSS
VL: QSVLTQPPSVSGAPGQRVTISCTGSSSNIGAGYDVHWYQQLPGTAPKLLIYGNSNRPSGVPDRFSGSKSGTSASLAITGLQAEDEADYYCQSHDLGAHVWVFGGGTKLTVLG
With B5, the IC50 in assay [1] was determined as 6.3 nM; in assay [4], 5.6 nM; in assay [5] it was 8.7 nM. The results for the Maximum inhibition at 200 nM Fab [%] in assay [1], in assay [4] and in assay [5] were 99%, 99% and 100%, respectively. Also, the EC50 (read off the curve) in assay [2] worked out at 0.5 µg/mL; in assay [3] it was 0.4 µg/mL.

Values taken from patent publication US20210214435A1.
